The test has as its target combined repetitive oligopeptide domain of C. difficile toxin A (AviTag-His6-CROP) (Clostridium difficile, UniProt P16154 2304-2710). Briefly: SPR. The settings on record: both partners purified.

Substitutions are numbered along the chain they refer to.

The Kd is the free concentration of one partner at which half of the binding sites on the other are occupied at equilibrium, for simple one-to-one binding.

B1: anti-CROP gastrobody G9 (His6-Thrombin site-SpyTag003-gastrobody) (designed binder)
chain: DFVLDNEGNPLENGGTYYILSHPDLFGGIRAAPTGNERCPLTVVQSLYLFDKGIGTIISSPYRIRFIAEGHPLSLKFDSFAVIMLCVGIPTEWSVVEDLPEGPAVKIGENKDAMDGWFRLERVSDDEFNNYKLVFCPQQAEDDKCGDIGISIDHDDGTRRLVVSKNKPLVVQFQKLDKESL
Consider B1, for which the Kd is 4.1 µM.

B2: anti-CROP gastrobody G22 (His6-Thrombin site-SpyTag003-gastrobody) (designed binder)
chain: B1 chain with H22L, P23Q, D24N, L25R, L47H, Y48D, L49F, F50M
Regarding B2, the Kd was about 50 µM.

B3: anti-CROP gastrobody T42 (His6-Thrombin site-SpyTag003-gastrobody) (designed binder)
chain: B1 chain with H22V, D24H, L25Q, L47R, Y48N, L49K, F50W
As to B3, the Kd turned out to be 6.2 µM.

The values above are taken from publication PMC8358037 (Communications Biology, 2021).
